Reference: publication PMC11969024 (2025)

B1: peptide HD2 (from tick evasin EVA4) / CCL11 (biotinylated, synthetic) (parent complex)
chain 1: EEDDYTAYAPLTCYFT
chain 2: not shown

Variants of: B1

Going from chain 1 A9E to chain 1 A9M, the enrichment falls from 0.893 log2 (difference from the parental peptide) to -3.46 log2 (difference from the parental peptide).

First: chain 1 A9R
Second: chain 1 A9S
The enrichment of the first is lower: -1.6 log2 (difference from the parental peptide) for the first, -1.28 log2 (difference from the parental peptide) for the second.

First: chain 1 A9V
Second: chain 1 A9L
The enrichment of the first is higher: -5.98 log2 (difference from the parental peptide) for the first, -7.13 log2 (difference from the parental peptide) for the second.

Compared with chain 1 A9K, chain 1 A9G is lower in enrichment: -4.4 log2 (difference from the parental peptide) for the first, -4.51 log2 (difference from the parental peptide) for the second.

Going from chain 1 A9Y to chain 1 E2D, the enrichment rises from -4.85 log2 (difference from the parental peptide) to 1.39 log2 (difference from the parental peptide).

Compared with chain 1 E2A, chain 1 E2T is lower in enrichment: -0.825 log2 (difference from the parental peptide) for the first, -2.27 log2 (difference from the parental peptide) for the second.

First: chain 1 E2H
Second: chain 1 E2R
The enrichment of the first is higher: -2.49 log2 (difference from the parental peptide) for the first, -4.24 log2 (difference from the parental peptide) for the second.

First: chain 1 E2L
Second: chain 1 E2W
The enrichment of the first is higher: -1.7 log2 (difference from the parental peptide) for the first, -2.09 log2 (difference from the parental peptide) for the second.

Going from chain 1 E2V to chain 1 E2P, the enrichment falls from -1.61 log2 (difference from the parental peptide) to -2.92 log2 (difference from the parental peptide).

Compared with chain 1 Y14E, chain 1 Y14F is higher in enrichment: -7.34 log2 (difference from the parental peptide) for the first, 0.149 log2 (difference from the parental peptide) for the second.

First: chain 1 Y14D
Second: chain 1 Y14Q
The enrichment of the first is higher: -4.78 log2 (difference from the parental peptide) for the first, -4.82 log2 (difference from the parental peptide) for the second.

Going from chain 1 Y14T to chain 1 Y14I, the enrichment rises from -4.02 log2 (difference from the parental peptide) to -2.68 log2 (difference from the parental peptide).

Going from chain 1 Y14R to chain 1 Y14V, the enrichment rises from -8.35 log2 (difference from the parental peptide) to -3.71 log2 (difference from the parental peptide).

Compared with chain 1 T16Q, chain 1 T16M is lower in enrichment: 1.62 log2 (difference from the parental peptide) for the first, 0.752 log2 (difference from the parental peptide) for the second.

Going from chain 1 T16K to chain 1 T16C, the enrichment falls from -0.03 log2 (difference from the parental peptide) to -0.0325 log2 (difference from the parental peptide).

Compared with chain 1 T16A, chain 1 T16W is lower in enrichment: 1.44 log2 (difference from the parental peptide) for the first, -0.88 log2 (difference from the parental peptide) for the second.

First: chain 1 T16L
Second: chain 1 T16Y
The enrichment of the first is higher: 0.412 log2 (difference from the parental peptide) for the first, -0.239 log2 (difference from the parental peptide) for the second.

First: chain 1 T16R
Second: chain 1 T16V
The enrichment of the first is lower: -1.09 log2 (difference from the parental peptide) for the first, 0.462 log2 (difference from the parental peptide) for the second.

First: chain 1 T16H
Second: chain 1 T16F
The enrichment of the first is higher: 0.297 log2 (difference from the parental peptide) for the first, -0.46 log2 (difference from the parental peptide) for the second.

First: chain 1 Y5T
Second: chain 1 Y5W
The enrichment of the first is lower: -4.78 log2 (difference from the parental peptide) for the first, 1.88 log2 (difference from the parental peptide) for the second.

Going from chain 1 Y5D to chain 1 Y5M, the enrichment rises from -3.62 log2 (difference from the parental peptide) to -1.54 log2 (difference from the parental peptide).

Compared with chain 1 Y5H, chain 1 Y5S is higher in enrichment: -6.32 log2 (difference from the parental peptide) for the first, -5.35 log2 (difference from the parental peptide) for the second.

Going from chain 1 Y5N to chain 1 Y5A, the enrichment falls from -5.96 log2 (difference from the parental peptide) to -6.65 log2 (difference from the parental peptide).

Going from chain 1 Y5F to chain 1 Y5V, the enrichment falls from 0.0717 log2 (difference from the parental peptide) to -5.26 log2 (difference from the parental peptide).

Compared with chain 1 Y5G, chain 1 A7N is higher in enrichment: -5.68 log2 (difference from the parental peptide) for the first, 1.29 log2 (difference from the parental peptide) for the second.

First: chain 1 A7F
Second: chain 1 A7T
The enrichment of the first is lower: -1.71 log2 (difference from the parental peptide) for the first, -0.43 log2 (difference from the parental peptide) for the second.

Compared with chain 1 A7V, chain 1 A7S is higher in enrichment: -0.751 log2 (difference from the parental peptide) for the first, 0.886 log2 (difference from the parental peptide) for the second.

First: chain 1 A7E
Second: chain 1 A7Y
The enrichment of the first is higher: 2.59 log2 (difference from the parental peptide) for the first, -0.616 log2 (difference from the parental peptide) for the second.

First: chain 1 A7M
Second: chain 1 A7P
The enrichment of the first is higher: 1.99 log2 (difference from the parental peptide) for the first, 0.578 log2 (difference from the parental peptide) for the second.

Compared with chain 1 A7G, chain 1 A7R is higher in enrichment: -1.16 log2 (difference from the parental peptide) for the first, 0.794 log2 (difference from the parental peptide) for the second.

Going from chain 1 T6E to chain 1 T6Q, the enrichment falls from 3.27 log2 (difference from the parental peptide) to 0.834 log2 (difference from the parental peptide).

First: chain 1 T6F
Second: chain 1 T6K
The enrichment of the first is lower: -4.68 log2 (difference from the parental peptide) for the first, -1.28 log2 (difference from the parental peptide) for the second.

Going from chain 1 T6M to chain 1 T6I, the enrichment falls from -0.715 log2 (difference from the parental peptide) to -5.35 log2 (difference from the parental peptide).

Going from chain 1 T6D to chain 1 T6L, the enrichment falls from 3.92 log2 (difference from the parental peptide) to -2.13 log2 (difference from the parental peptide).

Compared with chain 1 T6N, chain 1 T6A is higher in enrichment: 1.61 log2 (difference from the parental peptide) for the first, 1.96 log2 (difference from the parental peptide) for the second.

Going from chain 1 P10Q to chain 1 P10L, the enrichment falls from -3.8 log2 (difference from the parental peptide) to -9.08 log2 (difference from the parental peptide).

First: chain 1 P10Y
Second: chain 1 Y8L
The enrichment of the first is higher: -5.97 log2 (difference from the parental peptide) for the first, -9.35 log2 (difference from the parental peptide) for the second.

Compared with chain 1 Y8M, chain 1 Y8A is higher in enrichment: -6.75 log2 (difference from the parental peptide) for the first, -4.4 log2 (difference from the parental peptide) for the second.

Going from chain 1 Y8V to chain 1 Y8N, the enrichment rises from -8.13 log2 (difference from the parental peptide) to -5.38 log2 (difference from the parental peptide).

Going from chain 1 Y8W to chain 1 Y8F, the enrichment rises from -1.91 log2 (difference from the parental peptide) to 1.62 log2 (difference from the parental peptide).

Going from chain 1 D4R to chain 1 D4L, the enrichment rises from -6.08 log2 (difference from the parental peptide) to -4.32 log2 (difference from the parental peptide).

Compared with chain 1 D4T, chain 1 D4W is higher in enrichment: -4.2 log2 (difference from the parental peptide) for the first, -3.16 log2 (difference from the parental peptide) for the second.

First: chain 1 D4S
Second: chain 1 D4M
The enrichment of the first is lower: -3.54 log2 (difference from the parental peptide) for the first, -3.45 log2 (difference from the parental peptide) for the second.

Going from chain 1 D4A to chain 1 D4N, the enrichment rises from -3.23 log2 (difference from the parental peptide) to -2.87 log2 (difference from the parental peptide).

First: chain 1 D4P
Second: chain 1 D4K
The enrichment of the first is higher: -3.25 log2 (difference from the parental peptide) for the first, -5.45 log2 (difference from the parental peptide) for the second.

First: chain 1 D4E
Second: chain 1 D4F
The enrichment of the first is higher: -0.216 log2 (difference from the parental peptide) for the first, -4.42 log2 (difference from the parental peptide) for the second.

First: chain 1 D4Q
Second: chain 1 D4I
The enrichment of the first is higher: -3.06 log2 (difference from the parental peptide) for the first, -4.32 log2 (difference from the parental peptide) for the second.

First: chain 1 D4Y
Second: chain 1 D4H
The enrichment of the first is higher: -1.9 log2 (difference from the parental peptide) for the first, -5.76 log2 (difference from the parental peptide) for the second.

Compared with chain 1 C13Y, chain 1 C13A is lower in enrichment: -6.32 log2 (difference from the parental peptide) for the first, -8.03 log2 (difference from the parental peptide) for the second.

Compared with chain 1 C13H, chain 1 C13M is higher in enrichment: -9.22 log2 (difference from the parental peptide) for the first, -6.39 log2 (difference from the parental peptide) for the second.

Going from chain 1 C13S to chain 1 C13G, the enrichment falls from -5.22 log2 (difference from the parental peptide) to -8.69 log2 (difference from the parental peptide).

Going from chain 1 C13Q to chain 1 F15V, the enrichment rises from -8.37 log2 (difference from the parental peptide) to 0.59 log2 (difference from the parental peptide).

First: chain 1 F15C
Second: chain 1 F15W
The enrichment of the first is lower: -4.03 log2 (difference from the parental peptide) for the first, -1.47 log2 (difference from the parental peptide) for the second.

Compared with chain 1 F15Y, chain 1 F15S is higher in enrichment: 0.26 log2 (difference from the parental peptide) for the first, 0.275 log2 (difference from the parental peptide) for the second.

Compared with chain 1 F15P, chain 1 F15I is higher in enrichment: -0.525 log2 (difference from the parental peptide) for the first, 0.05 log2 (difference from the parental peptide) for the second.

Compared with chain 1 F15N, chain 1 F15G is lower in enrichment: -1.58 log2 (difference from the parental peptide) for the first, -2.42 log2 (difference from the parental peptide) for the second.

Going from chain 1 F15H to chain 1 F15K, the enrichment falls from -0.581 log2 (difference from the parental peptide) to -4.78 log2 (difference from the parental peptide).

Compared with chain 1 E1R, chain 1 E1T is higher in enrichment: -2.69 log2 (difference from the parental peptide) for the first, -0.645 log2 (difference from the parental peptide) for the second.

First: chain 1 E1H
Second: chain 1 E1A
The enrichment of the first is lower: -1.51 log2 (difference from the parental peptide) for the first, -0.354 log2 (difference from the parental peptide) for the second.

Compared with chain 1 E1K, chain 1 E1G is higher in enrichment: -2.4 log2 (difference from the parental peptide) for the first, -0.291 log2 (difference from the parental peptide) for the second.

Compared with chain 1 E1P, chain 1 E1S is higher in enrichment: -1 log2 (difference from the parental peptide) for the first, -0.538 log2 (difference from the parental peptide) for the second.

Going from chain 1 E1V to chain 1 E1F, the enrichment falls from -1.08 log2 (difference from the parental peptide) to -2.2 log2 (difference from the parental peptide).

First: chain 1 T12K
Second: chain 1 T12M
The enrichment of the first is lower: -5.35 log2 (difference from the parental peptide) for the first, -1.76 log2 (difference from the parental peptide) for the second.

Compared with chain 1 T12A, chain 1 T12Y is higher in enrichment: -2.95 log2 (difference from the parental peptide) for the first, -1.75 log2 (difference from the parental peptide) for the second.

Going from chain 1 T12P to chain 1 T12F, the enrichment rises from -3.61 log2 (difference from the parental peptide) to -3.13 log2 (difference from the parental peptide).

Going from chain 1 T12H to chain 1 T12Q, the enrichment rises from -1.8 log2 (difference from the parental peptide) to -1.12 log2 (difference from the parental peptide).

Going from chain 1 L11S to chain 1 L11M, the enrichment rises from -0.475 log2 (difference from the parental peptide) to 2.06 log2 (difference from the parental peptide).

First: chain 1 L11D
Second: chain 1 L11R
The enrichment of the first is lower: -6.85 log2 (difference from the parental peptide) for the first, -0.735 log2 (difference from the parental peptide) for the second.

Going from chain 1 L11N to chain 1 L11C, the enrichment rises from -4.38 log2 (difference from the parental peptide) to 1.22 log2 (difference from the parental peptide).

Compared with chain 1 L11H, chain 1 L11P is lower in enrichment: 0.483 log2 (difference from the parental peptide) for the first, -8.67 log2 (difference from the parental peptide) for the second.

First: chain 1 D3N
Second: chain 1 D3I
The enrichment of the first is higher: -2.05 log2 (difference from the parental peptide) for the first, -3.65 log2 (difference from the parental peptide) for the second.

Going from chain 1 D3S to chain 1 D3L, the enrichment falls from -2.82 log2 (difference from the parental peptide) to -3.39 log2 (difference from the parental peptide).

Going from chain 1 D3C to chain 1 D3H, the enrichment rises from -10.5 log2 (difference from the parental peptide) to -2.18 log2 (difference from the parental peptide).

Compared with chain 1 D3M, chain 1 D3E is higher in enrichment: -2.72 log2 (difference from the parental peptide) for the first, 1.42 log2 (difference from the parental peptide) for the second.

First: chain 1 D3W
Second: chain 1 D3P
The enrichment of the first is higher: -3.25 log2 (difference from the parental peptide) for the first, -3.5 log2 (difference from the parental peptide) for the second.
